Test results from article PMC8376421.

Biological target: recombinant hACE2-AviTag protein (human) (UniProt Q9BYF1)
Experiment: SPR

UniProt Q9BYF1, sequence (Q9BYF1 18-740): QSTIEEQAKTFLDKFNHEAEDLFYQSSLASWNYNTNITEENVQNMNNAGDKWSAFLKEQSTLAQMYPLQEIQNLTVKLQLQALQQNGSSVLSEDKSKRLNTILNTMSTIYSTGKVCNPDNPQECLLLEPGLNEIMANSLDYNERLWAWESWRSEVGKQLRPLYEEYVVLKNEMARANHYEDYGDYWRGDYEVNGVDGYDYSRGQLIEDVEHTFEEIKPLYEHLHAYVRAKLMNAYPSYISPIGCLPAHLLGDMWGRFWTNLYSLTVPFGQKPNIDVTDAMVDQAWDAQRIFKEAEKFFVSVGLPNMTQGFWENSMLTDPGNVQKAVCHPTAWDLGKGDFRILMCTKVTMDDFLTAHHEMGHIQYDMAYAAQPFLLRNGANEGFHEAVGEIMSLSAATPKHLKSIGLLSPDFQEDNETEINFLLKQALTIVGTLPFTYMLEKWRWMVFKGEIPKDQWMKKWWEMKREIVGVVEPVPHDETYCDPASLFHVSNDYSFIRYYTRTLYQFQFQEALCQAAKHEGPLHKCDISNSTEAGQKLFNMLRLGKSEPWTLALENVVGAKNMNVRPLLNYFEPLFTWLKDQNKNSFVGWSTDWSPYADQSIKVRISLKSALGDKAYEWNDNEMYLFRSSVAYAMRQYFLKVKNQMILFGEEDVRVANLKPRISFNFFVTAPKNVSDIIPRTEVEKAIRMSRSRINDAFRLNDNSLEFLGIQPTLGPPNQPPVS

SARS-CoV-2 spike RBD-MBP fusion protein (domain or fragment)
Kd: 19 nM
